Measured values: the supplement of paper PMC7877785
± gives the uncertainty stated by the source.

Test: self-splicing fitness, log relative to wild type (ln ratio); higher = more splicing; Tetrahymena group I intron in knt gene, E. coli kanamycin selection, DiMSum; sequences stand for … in CUCUCU…GGAGGGAAAAGUUAUCAGGCAUGCACCUGGUAGCUAGUCUUUAAACCAAUAGAUUGCAUCGGUUUAAAAGGCAAGACCGUCAAAUUGCGGGAAAGGGGUCAACAGCCGUUCAGUACCAAGUCUCAGGGGAAACUUUGAGAUGGCCUUGCAAAGGGUAUGGUAAUAAGCUGACGGACAUGGUCCUAACCACGCAGCCAAGUCCUAAGUCAACAGAUCUUCUGUUGAUAUGGAUGCAGUUCACAGACUAAAUGUCGGUCGGGGAAGAUGUAUUCUUCUCAUAAGAUAUAGUCGGACCUCUCCUUAAUGGGAGCUAGCGGAUGAAGUGAUGCAACACUGGAGCCGCUGGGAACUAAUUUGUAUGCGAAAGUAUAUUGAUUAGUUUUGGAGUACUCGUGGUCG
Procedure, shortened: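 Six replicate transformations of E. coli BL21(DE3) with a pET-22b(+) library were grown overnight at 37°C or 30°C. The library randomised all eight P1ex-region intron nucleotides, the intron lying in the knt kanamycin-resistance gene, and plates were LB agar with or without 25 μg/mL kanamycin plus 100 μg/mL carbenicillin, 50 μM IPTG and 0.2% rhamnose. Pooled colonies were amplicon-sequenced on an Illumina HiSeq 2500, and fitness is the DiMSum error-weighted combination of wild-type-normalised replicate fold changes, kanamycin versus none.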

Sequence | self-splicing fitness (ln) (30 °C) | self-splicing fitness (ln) (37 °C)
UCUAAGCAAUAUUACGUAAU | -3.41 ± 0.2 | -1.66 ± 0.19
UCUAAGCAAUAUUACGUAGU | -0.857 ± 0.05 | -0.481 ± 0.069
UCUAAGCAAUAUUACGUCGU | -1.19 ± 0.1 | -0.695 ± 0.12
UCUAAGCAAUAUUACGUGCA | -1.2 ± 0.12 | -0.538 ± 0.13
UCUAAGCAAUAUUACGUUGG | -1.6 ± 0.064 | -1.37 ± 0.086
UCUCAGCAAUAUUACGACCA | -0.757 ± 0.13 | -0.615 ± 0.14
UCUCAGCAAUAUUACGACGC | – | 0.221 ± 0.23
UCUCAGCAAUAUUACGACUC | -3.38 ± 0.38 | -2.02 ± 0.33
UCUCAGCAAUAUUACGAGCU | -1.48 ± 0.086 | -0.552 ± 0.12
UCUCAGCAAUAUUACGAUAC | -1.92 ± 0.28 | -2.46 ± 0.45
UCUCAGCAAUAUUACGAUCG | -1.29 ± 0.12 | -0.618 ± 0.15
UCUCAGCAAUAUUACGCAAU | -2.45 ± 0.23 | -1.89 ± 0.23
UCUCAGCAAUAUUACGCAUA | -2.22 ± 0.13 | -0.634 ± 0.12
UCUCAGCAAUAUUACGCCUC | -3.12 ± 0.27 | -2.27 ± 0.29
UCUCAGCAAUAUUACGGACU | -1.23 ± 0.062 | -0.345 ± 0.088
UCUCAGCAAUAUUACGGCCG | – | -2.73 ± 0.38
UCUCAGCAAUAUUACGUAAG | -2.07 ± 0.12 | -1.17 ± 0.13
UCUCAGCAAUAUUACGUACU | -3.39 ± 0.28 | -1.2 ± 0.19
UCUCAGCAAUAUUACGUAUA | -2.86 ± 0.17 | -1.32 ± 0.13
UCUCAGCAAUAUUACGUCAU | -3.13 ± 0.2 | -3.29 ± 0.27
UCUCAGCAAUAUUACGUCGU | -2.11 ± 0.091 | -1.91 ± 0.11
UCUCAGCAAUAUUACGUCUU | -3.25 ± 0.17 | -2.83 ± 0.15
UCUCAGCAAUAUUACGUUGG | -3.58 ± 0.14 | -3.73 ± 0.23
UCUCAGCAAUAUUACGUUUG | -4.44 ± 0.19 | -3.1 ± 0.15
UCUGAGCAAUAUUACGCAAG | -3.36 ± 0.18 | -2.16 ± 0.19
UCUGAGCAAUAUUACGCCCU | – | -1.62 ± 0.33
UCUGAGCAAUAUUACGCGGC | -4.16 ± 0.47 | -3.58 ± 0.33

Sequence | self-splicing fitness (ln) (30 °C) | self-splicing fitness (ln) (37 °C)
UCUGAGCAAUAUUACGCGUA | -2.5 ± 0.19 | 0.763 ± 0.13
UCUGAGCAAUAUUACGCGUG | -2.36 ± 0.16 | -0.768 ± 0.11
UCUGAGCAAUAUUACGCUCC | -2.04 ± 0.49 | –
UCUGAGCAAUAUUACGCUGG | -2 ± 0.16 | -1.11 ± 0.17
UCUGAGCAAUAUUACGGACG | -1.17 ± 0.35 | -2.21 ± 0.45
UCUGAGCAAUAUUACGGCAU | -2.79 ± 0.27 | –
UCUGAGCAAUAUUACGGCUA | -3.33 ± 0.42 | -2.58 ± 0.29
UCUGAGCAAUAUUACGGGUG | -3.83 ± 0.19 | -2.42 ± 0.14
UCUGAGCAAUAUUACGGUAA | -2.84 ± 0.33 | -2.24 ± 0.3
UCUGAGCAAUAUUACGUAAU | -3.33 ± 0.23 | -2.12 ± 0.29
UCUGAGCAAUAUUACGUCGA | -0.0432 ± 0.089 | 0.353 ± 0.12
UCUGAGCAAUAUUACGUGCG | -3 ± 0.1 | -1.34 ± 0.09
UCUGAGCAAUAUUACGUGUU | -3.93 ± 0.27 | -2.55 ± 0.23
UCUGAGCAAUAUUACGUUCA | -2.84 ± 0.18 | -2.87 ± 0.28
UCUUAGCAAUAUUACGAAGC | -2.94 ± 0.21 | -2.05 ± 0.17
UCUUAGCAAUAUUACGAGCA | -0.901 ± 0.15 | -0.00766 ± 0.15
UCUUAGCAAUAUUACGAGGU | -3.29 ± 0.29 | -1.82 ± 0.2
UCUUAGCAAUAUUACGAGUC | – | -2.22 ± 0.36
UCUUAGCAAUAUUACGCAAA | -1.56 ± 0.32 | -2.31 ± 0.29
UCUUAGCAAUAUUACGCAAU | – | -2.53 ± 0.36
UCUUAGCAAUAUUACGCCGU | -2.05 ± 0.16 | -0.32 ± 0.17
UCUUAGCAAUAUUACGCCUA | – | -2.71 ± 0.41
UCUUAGCAAUAUUACGCGUA | -3.4 ± 0.24 | -1.38 ± 0.15
UCUUAGCAAUAUUACGCUCU | -1.99 ± 0.24 | -1.61 ± 0.29
UCUUAGCAAUAUUACGGAAC | -0.987 ± 0.34 | -1.99 ± 0.43
UCUUAGCAAUAUUACGGAGG | -2.67 ± 0.34 | -2.17 ± 0.31
UCUUAGCAAUAUUACGGCAA | – | -1.57 ± 0.37

Sequence | self-splicing fitness (ln) (30 °C) | self-splicing fitness (ln) (37 °C)
UCUUAGCAAUAUUACGGGAG | -2.63 ± 0.49 | -2.41 ± 0.35
UCUUAGCAAUAUUACGGUAA | -2.62 ± 0.23 | -1.7 ± 0.32
UCUUAGCAAUAUUACGGUAC | -3.68 ± 0.41 | -2.51 ± 0.48
UCUUAGCAAUAUUACGGUCG | -0.895 ± 0.16 | -1.37 ± 0.33
UCUUAGCAAUAUUACGGUGU | -2.83 ± 0.12 | -1.23 ± 0.12
UCUUAGCAAUAUUACGGUUU | -3.61 ± 0.22 | -1.77 ± 0.2
UCUUAGCAAUAUUACGUAGA | -1.15 ± 0.21 | -0.474 ± 0.18
UCUUAGCAAUAUUACGUGCU | -3.12 ± 0.38 | -2.37 ± 0.48
UCUUAGCAAUAUUACGUGUU | -2.67 ± 0.15 | -2.3 ± 0.25
UCUUAGCAAUAUUACGUUCA | -2.92 ± 0.14 | -1.85 ± 0.11
UCUUAGCAAUAUUACGUUGC | -3.46 ± 0.47 | –
UGAAAGCAAUAUUACGAACC | -1.55 ± 0.17 | -1.16 ± 0.22
UGAAAGCAAUAUUACGACUA | -0.403 ± 0.08 | 0.139 ± 0.11
UGAAAGCAAUAUUACGAGCG | 0.46 ± 0.072 | -0.171 ± 0.085
UGAAAGCAAUAUUACGAGGG | -2.91 ± 0.17 | -3.6 ± 0.42
UGAAAGCAAUAUUACGAUUG | -0.872 ± 0.11 | -0.573 ± 0.14
UGAAAGCAAUAUUACGCGCC | -0.832 ± 0.21 | -0.728 ± 0.23
UGAAAGCAAUAUUACGCUUA | -1.26 ± 0.17 | -0.254 ± 0.17
UGAAAGCAAUAUUACGGAAA | -1.83 ± 0.18 | -1.29 ± 0.17
UGAAAGCAAUAUUACGGAGA | -3.09 ± 0.2 | -2.54 ± 0.23
UGAAAGCAAUAUUACGGAUU | -1.99 ± 0.17 | -1.09 ± 0.18
UGAAAGCAAUAUUACGGCAG | -0.742 ± 0.094 | -0.105 ± 0.11
UGAAAGCAAUAUUACGGGAA | -2.6 ± 0.14 | -1.62 ± 0.12
UGAAAGCAAUAUUACGGGUG | -0.621 ± 0.051 | -0.399 ± 0.069
UGAAAGCAAUAUUACGGUCU | -0.0503 ± 0.077 | -0.209 ± 0.085
